From the supplement of paper PMC9112550, “Optimization of the antimicrobial peptide Bac7 by deep mutational scanning” (BMC Biology, 2022)

System: Escherichia coli TOP10
Assay: shrunken log2 fold change of peptide-encoding DNA abundance (4.5 h post-induction vs induction); higher = less antimicrobial activity (less host growth inhibition)
Settings: time post-induction: 4.5 h; library: site-saturation at positions 5, 18, 19, 20
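Further: peptides expressed intracellularly from a pBAD plasmid library in pooled LB shake-flask culture, induced with 0.3% L-arabinose, DNA abundance read by NGS, three biological replicates, DESeq2 with apeglm shrinkage.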

Sequence | shrunken log2 fold change
RRIRYRPPRLPRPRPRPSFCPRP | -0.793
RRIRRRPPRLPRPRPRPLRYPRP | 0.463
RRIRSRPPRLPRPRPRPHVKPRP | -0.00963
RRIRDRPPRLPRPRPRPQGGPRP | -0.17
RRIRFRPPRLPRPRPRPKDEPRP | -0.13
RRIRLRPPRLPRPRPRPCEMPRP | -0.0934
RRIRPRPPRLPRPRPRPPCIPRP | 0.00615
RRIRWRPPRLPRPRPRPYPIPRP | 0.0625
RRIRSRPPRLPRPRPRPMGTPRP | 0.194
RRIRYRPPRLPRPRPRPKDSPRP | -0.0869
RRIRRRPPRLPRPRPRPWRRPRP | 0.358
RRIRARPPRLPRPRPRPAAAPRP | 1.11
RRIRERPPRLPRPRPRPFWDPRP | 0.029
RRIRGRPPRLPRPRPRPFAWPRP | 0.573
RRIRKRPPRLPRPRPRPGRFPRP | 0.227
RRIRVRPPRLPRPRPRPPMNPRP | -0.205
RRIRNRPPRLPRPRPRPAINPRP | 0.0991
RRIRARPPRLPRPRPRPLVRPRP | 0.264
RRIRRRPPRLPRPRPRPQRQPRP | 0.175
RRIRIRPPRLPRPRPRPQDIPRP | -0.461
RRIRTRPPRLPRPRPRPRWVPRP | 0.216
RRIRVRPPRLPRPRPRPRGHPRP | 0.175
RRIRERPPRLPRPRPRPTENPRP | -0.0185
RRIRLRPPRLPRPRPRPDHCPRP | -0.0562
RRIRPRPPRLPRPRPRPDIMPRP | -0.0454

Sequence | shrunken log2 fold change
RRIRYRPPRLPRPRPRPDDKPRP | -1.56
RRIRRRPPRLPRPRPRPNCAPRP | 0.32
RRIRVRPPRLPRPRPRPGTIPRP | -0.0277
RRIRWRPPRLPRPRPRPTWYPRP | 0.27
RRIRRRPPRLPRPRPRPWHNPRP | -0.279
RRIRGRPPRLPRPRPRPGEGPRP | 1.15
RRIRSRPPRLPRPRPRPAWHPRP | 0.0201
RRIRERPPRLPRPRPRPQLKPRP | -0.358
RRIRTRPPRLPRPRPRPTYGPRP | -0.104
RRIRGRPPRLPRPRPRPTREPRP | 0.994
RRIRNRPPRLPRPRPRPEAAPRP | 0.902
RRIRYRPPRLPRPRPRPWIDPRP | -0.274
RRIRSRPPRLPRPRPRPIFDPRP | -0.0516
RRIRQRPPRLPRPRPRPISAPRP | -0.0212
RRIRKRPPRLPRPRPRPKVWPRP | 0.354
RRIRPRPPRLPRPRPRPPQAPRP | 0.335
RRIRTRPPRLPRPRPRPVNMPRP | -0.192
RRIRERPPRLPRPRPRPSGRPRP | 0.226
RRIRPRPPRLPRPRPRPMIFPRP | -0.214
RRIRLRPPRLPRPRPRPNTSPRP | -0.333
RRIRRRPPRLPRPRPRPRWMPRP | 0.25
RRIRCRPPRLPRPRPRPSYGPRP | -0.627
RRIRPRPPRLPRPRPRPAHRPRP | 0.384
RRIRTRPPRLPRPRPRPEYTPRP | -0.052
RRIRHRPPRLPRPRPRPLKCPRP | -0.024

Sequence | shrunken log2 fold change
RRIRHRPPRLPRPRPRPICTPRP | -0.485
RRIRDRPPRLPRPRPRPRWYPRP | -0.0526
RRIRVRPPRLPRPRPRPVSHPRP | 0.173
RRIRERPPRLPRPRPRPGYKPRP | -0.11
RRIRVRPPRLPRPRPRPFQNPRP | 0.00707
RRIRYRPPRLPRPRPRPTYSPRP | -0.443
RRIRCRPPRLPRPRPRPDQIPRP | -0.212
RRIRMRPPRLPRPRPRPILHPRP | -0.378
RRIRWRPPRLPRPRPRPQRCPRP | 0.103
RRIRARPPRLPRPRPRPAICPRP | 0.252
RRIRWRPPRLPRPRPRPVDIPRP | 0.101
RRIRDRPPRLPRPRPRPKDSPRP | -0.0525
RRIRKRPPRLPRPRPRPYPYPRP | -0.125
RRIRARPPRLPRPRPRPFQLPRP | -0.94
RRIRRRPPRLPRPRPRPRKGPRP | 0.215
RRIRYRPPRLPRPRPRPFFMPRP | -0.71
RRIRPRPPRLPRPRPRPVHKPRP | -0.0637
RRIRSRPPRLPRPRPRPHDGPRP | -0.01
RRIRTRPPRLPRPRPRPSPAPRP | 0.133
RRIRDRPPRLPRPRPRPPPQPRP | 0.775
RRIRHRPPRLPRPRPRPMETPRP | -0.0865
RRIRPRPPRLPRPRPRPFTQPRP | -0.0301
RRIRERPPRLPRPRPRPYAKPRP | -0.329
RRIRARPPRLPRPRPRPQWNPRP | -0.00397
RRIRDRPPRLPRPRPRPQDSPRP | 0.00388

Sequence | shrunken log2 fold change
RRIRTRPPRLPRPRPRPGVTPRP | 0.276
RRIRDRPPRLPRPRPRPCCVPRP | -0.158
RRIRPRPPRLPRPRPRPKKRPRP | 0.136
RRIRWRPPRLPRPRPRPLPPPRP | 0.686
RRIRQRPPRLPRPRPRPEQAPRP | 0.378
RRIRARPPRLPRPRPRPDTWPRP | 1.13
RRIRVRPPRLPRPRPRPFPSPRP | -0.127
RRIRRRPPRLPRPRPRPLVNPRP | 0.0359
RRIRRRPPRLPRPRPRPKVHPRP | 0.153
RRIRTRPPRLPRPRPRPYLEPRP | -0.573
RRIRQRPPRLPRPRPRPAMIPRP | 0.103
RRIRERPPRLPRPRPRPQTVPRP | 0.136
RRIRPRPPRLPRPRPRPNVRPRP | -0.163
RRIRARPPRLPRPRPRPTYRPRP | 0.0376
RRIRHRPPRLPRPRPRPHFVPRP | -0.136
RRIRSRPPRLPRPRPRPCINPRP | -0.5
RRIRQRPPRLPRPRPRPLVPPRP | 0.253
RRIRLRPPRLPRPRPRPHGQPRP | 0.0101
RRIRARPPRLPRPRPRPDQWPRP | 0.493
RRIRNRPPRLPRPRPRPVPEPRP | 0.61
RRIRPRPPRLPRPRPRPICYPRP | -0.407
RRIRHRPPRLPRPRPRPMMFPRP | -0.18
RRIRARPPRLPRPRPRPDMWPRP | 0.422
RRIRSRPPRLPRPRPRPIQFPRP | -0.396
RRIRQRPPRLPRPRPRPNMSPRP | -0.313

Sequence | shrunken log2 fold change
RRIRARPPRLPRPRPRPDPGPRP | 0.29
RRIRIRPPRLPRPRPRPCMIPRP | -0.502
RRIRKRPPRLPRPRPRPMFDPRP | 0.166
RRIRFRPPRLPRPRPRPFKLPRP | -0.0106
RRIRNRPPRLPRPRPRPCTLPRP | -0.191
RRIRNRPPRLPRPRPRPQWNPRP | -0.319
RRIRYRPPRLPRPRPRPNFDPRP | -0.565
RRIRFRPPRLPRPRPRPTVMPRP | -0.0812
RRIRIRPPRLPRPRPRPLAKPRP | -0.346
RRIRHRPPRLPRPRPRPVIWPRP | -0.134
RRIRWRPPRLPRPRPRPRRRPRP | 1.3
RRIRNRPPRLPRPRPRPDVHPRP | 0.0115
RRIRSRPPRLPRPRPRPHAVPRP | 0.0594
RRIRDRPPRLPRPRPRPNCFPRP | 0.156
RRIRNRPPRLPRPRPRPAQMPRP | 0.177
RRIRKRPPRLPRPRPRPLHMPRP | 0.102
RRIRKRPPRLPRPRPRPFHFPRP | -0.0346
RRIRSRPPRLPRPRPRPDGRPRP | 0.0253
RRIRDRPPRLPRPRPRPTPAPRP | 0.551
RRIRLRPPRLPRPRPRPIPRPRP | 0.0727
RRIRPRPPRLPRPRPRPFFCPRP | 0.0262
RRIRMRPPRLPRPRPRPIWAPRP | 0.114
RRIRHRPPRLPRPRPRPDCKPRP | -0.148
RRIRQRPPRLPRPRPRPMQMPRP | 0.0303
RRIRARPPRLPRPRPRPNKQPRP | 0.165
